{
  "source": "patent US20260273029A1",
  "about": "“DRY EYE TREATMENT” (Inoculus Ventures, LLC, priority 2022, published 2026)",
  "key": {"[1]": {"system": "S. Aureus biofilms", "test": "Preliminary assessment of amylases on biofilms: prohibition of biofilm growth", "format": "cell-based", "details": "Table 1, preliminary assessment of activity on Biofilms", "excerpt": "(§1) Non-limiting examples of amylases contemplated by the disclosure and their preliminary assessment of their activity on Biofilms is listed on Table 1: […]"}, "[2]": {"system": "S. Aureus biofilms", "details": "existing data; cited from earlier work"}, "[3]": {"system": "S. Aureus biofilms", "test": "Preliminary assessment of amylases on biofilms: reduction of existing biofilm", "format": "cell-based", "details": "for Reduces Biofilm: Table 1, preliminary assessment of activity on Biofilms", "excerpt": "as §1"}},
  "data": [
    {"molecule": "α-Amylase from Bacillus subtilis: α-amylase from Bacillus subtilis (Sigma, catalog #10070) (protein, UniProt P00691 42-659, looked up) Alpha-amylase: LTAPSIKSGTILHAWNWSFNTLKHNMKDIHDAGYTAIQTSPINQVKEGNQGDKSMSNWYWLYQPTSYQIGNRYLGTEQEFKEMCAAAEEYGIKVIVDAVINHTTSDYAAISNEVKSIPNWTHGNTQIKNWSDRWDVTQNSLLGLYDWNTQNTQVQSYLKRFLDRALNDGADGFRFDAAKHIELPDDGSYGSQFWPNITNTSAEFQYGEILQDSASRDAAYANYMDVTASNYGHSIRSALKNRNLGVSNISHYASDVSADKLVTWVESHDTYANDDEESTWMSDDDIRLGWAVIASRSGSTPLFFSRPEGGGNGVRFPGKSQIGDRGSALFEDQAITAVNRFHNVMAGQPEELSNPNGNNQIFMNQRGSHGVVLANAGSSSVSINTATKLPDGRYDNKAGAGSFQVNDGKLTGTINARSVAVLYPDDIAKAPHVFLENYKTGVTHSFNDQLTITLRADANTTKAVYQINNGPETAFKDGDQFTIGKGDPFGKTYTIMLKGTNSDGVTRTEKYSFVKRDPASAKTIGYQNPNHWSQVNAYIYKHDGSRVIELTGSWPGKPMTKNADGIYTLTLPADTDTTNAKVIFNNGSAQVPGQNQPGFDYVLNGLYNDSGLSGSLPH", "values": [
      {"measurement": "Prohibits Biofilm Growth", "setting": "[1]", "value": "Yes"},
      {"measurement": "in-vitro effectiveness at the inhibition and reduction of S. Aureus biofilms", "setting": "[2]", "value": "certain in-vitro effectiveness"},
      {"measurement": "Reduces Biofilm, time", "setting": "[3]; Table 1, reduces biofilm only after this time", "value": "≥ 3", "unit": "h"}
    ]},
    {"molecule": "α-Amylase from human saliva: α-amylase from human saliva (Sigma, catalog #A1031) (protein, UniProt P0DUB6 16-511, looked up) Alpha-amylase 1A: QYSSNTQQGRTSIVHLFEWRWVDIALECERYLAPKGFGGVQVSPPNENVAIHNPFRPWWERYQPVSYKLCTRSGNEDEFRNMVTRCNNVGVRIYVDAVINHMCGNAVSAGTSSTCGSYFNPGSRDFPAVPYSGWDFNDGKCKTGSGDIENYNDATQVRDCRLSGLLDLALGKDYVRSKIAEYMNHLIDIGVAGFRIDASKHMWPGDIKAILDKLHNLNSNWFPEGSKPFIYQEVIDLGGEPIKSSDYFGNGRVTEFKYGAKLGTVIRKWNGEKMSYLKNWGEGWGFMPSDRALVFVDNHDNQRGHGAGGASILTFWDARLYKMAVGFMLAHPYGFTRVMSSYRWPRYFENGKDVNDWVGPPNDNGVTKEVTINPDTTCGNDWVCEHRWRQIRNMVNFRNVVDGQPFTNWYDNGSNQVAFGRGNRGFIVFNNDDWTFSLTLQTGLPAGTYCDVISGDKINGNCTGIKIYVSDDGKAHFSISNSAEDPFIAIHAESKL", "values": [
      {"measurement": "Prohibits Biofilm Growth", "setting": "[1]", "value": "Yes"},
      {"measurement": "in-vitro effectiveness at the inhibition and reduction of S. Aureus biofilms", "setting": "[2]", "value": "certain in-vitro effectiveness"},
      {"measurement": "Reduces Biofilm", "setting": "[3]", "value": "No"}
    ]},
    {"molecule": "β-Amylase from sweet potato: β-Amylase from sweet potato, Sigma Aldrich research grade (protein, UniProt P10537 2-499, looked up) Beta-amylase: APIPGVMPIGNYVSLYVMLPLGVVNADNVFPDKEKVEDELKQVKAGGCDGVMVDVWWGIIEAKGPKQYDWSAYRELFQLVKKCGLKIQAIMSFHQCGGNVGDAVFIPIPQWILQIGDKNPDIFYTNRAGNRNQEYLSLGVDNQRLFQGRTALEMYRDFMESFRDNMADFLKAGDIVDIEVGCGAAGELRYPSYPETQGWVFPGIGEFQCYDKYMVADWKEAVKQAGNADWEMPGKGAGTYNDTPDKTEFFRPNGTYKTDMGKFFLTWYSNKLIIHGDQVLEEANKVFVGLRVNIAAKVSGIHWWYNHVSHAAELTAGFYNVAGRDGYRPIARMLARHHATLNFTCLEMRDSEQPAEAKSAPQELVQQVLSSGWKEYIDVAGENALPRYDATAYNQMLLNVRPNGVNLNGPPKLKMSGLTYLRLSDDLLQTDNFELFKKFVKKMHADLDPSPNAISPAVLERSNSAITIDELMEATKGSRPFPWYDVTDMPVDGSNPFD", "values": [
      {"measurement": "Prohibits Biofilm Growth", "setting": "[1]", "value": "Partially"},
      {"measurement": "in-vitro effectiveness at the inhibition and reduction of S. Aureus biofilms", "setting": "[2]", "value": "certain in-vitro effectiveness"},
      {"measurement": "Reduces Biofilm", "setting": "[3]", "value": "No"}
    ]}
  ]
}
